Data published in patent US20090311278A1, “Novel teleost derived antimicrobial polypeptides” (THE UNIVERSITY OF GEORGIA RESEARCH FOUNDATION, published 2009).

T1: NCAMP-1 (histone H1X-like ODN binding protein), recombinant (Ictalurus punctatus)
T1 chain: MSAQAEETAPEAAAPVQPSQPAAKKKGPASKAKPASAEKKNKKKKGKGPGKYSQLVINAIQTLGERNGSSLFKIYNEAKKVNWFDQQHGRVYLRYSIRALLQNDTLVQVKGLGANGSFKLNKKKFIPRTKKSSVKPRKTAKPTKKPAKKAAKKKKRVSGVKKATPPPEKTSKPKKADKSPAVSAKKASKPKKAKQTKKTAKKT


Biological target: T1, NCAMP-1 (histone H1X-like ODN binding …)
Assay: Southwestern blot
Conditions: tags: C-terminal 6xHis (pET-21b, E. coli); label: biotin (3')
Method: Biotinylated ODNs were used to identify potential. DNA binding proteins in NCC membrane lysate preparations and to evaluate the ODN binding of recombinant NCAMP-1. Membrane lysates were prepared as indicated above. Purified recombinant NCAMP-1 was mixed with SDS-PAGE sample buffer (reducing) prior to electrophoresis. […] Membranes were blocked in Superblock (Pierce, Rockford Ill.) blocking solution with 0.05% Tween-20. ODN's were diluted in Superblock and added to membranes (1 h, room temperature). Membranes were washed (3×) in TBS with 0.5% Tween-20 (TBST). Neutraviden-HRP (Pierce) diluted in Superblock (minimum dilution 1:50000) was added and incubated for 30 min at room temperature. Blots were washed (3×) in TBST and were developed with enhanced chemiluminiscence (SuperSignal® West Pico Pierce, Rockford, Ill.).

Binder | binding result
TGCTGCTTGTGCTTGTGCTT (ssDNA) [GpC ODN] | binds
TCGTCGTTGTCGTTGTCGTT (ssDNA) [CpG ODN] | binds
